Measurements taken from FireProtDB (doi:10.1021/bi9707180).

B1: Guanyl-specific ribonuclease T1, P00651 (parent)
chain: MMYSKLLTLTTLLLPTALALPSLVERACDYTCGSNCYSSSDVSTAQAAGYQLHEDGETVGSNSYPHKYNNYEGFDFSVSSPYYEWPILSSGDVYSGGSPGADRVVFNENNQLAGVITHTGASGNNFVECT

Variants of: B1
Settings: Aspergillus oryzae (strain ATCC 42149 / RIB 40), 0 °C, Urea, CD, reversible: yes, structure 1RN1, whole UniProt chain shown

Row | Variant | ddG of mutation (higher = less stable) (pH 2.5, glycine 30 mM) | denaturant m value (pH 2.5, glycine 30 mM) | denaturant midpoint (higher = more stable) (pH 2.5, glycine 30 mM) | ddG of mutation (higher = less stable) (pH 7, MOPS 30 mM) | denaturant m value (pH 7, MOPS 30 mM) | denaturant midpoint (higher = more stable) (pH 7, MOPS 30 mM)
1 | MMYSKLLTLTTLLLPTALALPSLVERACDYTCGSNCYSSSDVSTAQLAGYQLHEDGETVGSNSYPHKYNNYEGFDFSVSSPYYEWPILSSGDVYSGGSPGADRVVFNENNQLAGVITHTGASGNNFVECT [A47L] | 0.13 kcal/mol | 1.64 kcal/mol/M | 2.7 M | – | – | –
2 | MMYSKLLTLTTLLLPTALALPSLVERACDYTCGSNCYSSSDVSTAQYAGYQLHEDGETVGSNSYPHKYNNYEGFDFSVSSPYYEWPILSSGDVYSGGSPGADRVVFNENNQLAGVITHTGASGNNFVECT [A47Y] | 0.39 kcal/mol | 1.69 kcal/mol/M | 2.54 M | – | – | –
3 | MMYSKLLTLTTLLLPTALALPSLVERACDYTCGSNCYSSSDVSTAQTAGYQLHEDGETVGSNSYPHKYNNYEGFDFSVSSPYYEWPILSSGDVYSGGSPGADRVVFNENNQLAGVITHTGASGNNFVECT [A47T] | 0.57 kcal/mol | 1.6 kcal/mol/M | 2.43 M | – | – | –
4 | MMYSKLLTLTTLLLPTALALPSLVERACDYTCGSNCYSSSDVSTAQIAGYQLHEDGETVGSNSYPHKYNNYEGFDFSVSSPYYEWPILSSGDVYSGGSPGADRVVFNENNQLAGVITHTGASGNNFVECT [A47I] | 0.44 kcal/mol | 1.57 kcal/mol/M | 2.51 M | – | – | –
5 | MMYSKLLTLTTLLLPTALALPSLVERACDYTCGSNCYSSSDVSTAQEAGYQLHEDGETVGSNSYPHKYNNYEGFDFSVSSPYYEWPILSSGDVYSGGSPGADRVVFNENNQLAGVITHTGASGNNFVECT [A47E] | -0.05 kcal/mol | 1.52 kcal/mol/M | 2.81 M | 0.69 kcal/mol | 1.14 kcal/mol/M | 3.75 M
6 | MMYSKLLTLTTLLLPTALALPSLVERACDYTCGSNCYSSSDVSTAQVAGYQLHEDGETVGSNSYPHKYNNYEGFDFSVSSPYYEWPILSSGDVYSGGSPGADRVVFNENNQLAGVITHTGASGNNFVECT [A47V] | 0.66 kcal/mol | 1.77 kcal/mol/M | 2.38 M | – | – | –
7 | MMYSKLLTLTTLLLPTALALPSLVERACDYTCGSNCYSSSDVSTAQDAGYQLHEDGETVGSNSYPHKYNNYEGFDFSVSSPYYEWPILSSGDVYSGGSPGADRVVFNENNQLAGVITHTGASGNNFVECT [A47D] | -0.33 kcal/mol | 1.59 kcal/mol/M | 2.98 M | 0.71 kcal/mol | 1.24 kcal/mol/M | 3.73 M
8 | MMYSKLLTLTTLLLPTALALPSLVERACDYTCGSNCYSSSDVSTAQKAGYQLHEDGETVGSNSYPHKYNNYEGFDFSVSSPYYEWPILSSGDVYSGGSPGADRVVFNENNQLAGVITHTGASGNNFVECT [A47K] | 0.51 kcal/mol | 1.7 kcal/mol/M | 2.47 M | – | – | –
9 | MMYSKLLTLTTLLLPTALALPSLVERACDYTCGSNCYSSSDVSTAQMAGYQLHEDGETVGSNSYPHKYNNYEGFDFSVSSPYYEWPILSSGDVYSGGSPGADRVVFNENNQLAGVITHTGASGNNFVECT [A47M] | 0.15 kcal/mol | 1.6 kcal/mol/M | 2.69 M | – | – | –
10 | MMYSKLLTLTTLLLPTALALPSLVERACDYTCGSNCYSSSDVSTAQWAGYQLHEDGETVGSNSYPHKYNNYEGFDFSVSSPYYEWPILSSGDVYSGGSPGADRVVFNENNQLAGVITHTGASGNNFVECT [A47W] | 0.3 kcal/mol | 1.56 kcal/mol/M | 2.6 M | – | – | –
11 | MMYSKLLTLTTLLLPTALALPSLVERACDYTCGSNCYSSSDVSTAQRAGYQLHEDGETVGSNSYPHKYNNYEGFDFSVSSPYYEWPILSSGDVYSGGSPGADRVVFNENNQLAGVITHTGASGNNFVECT [A47R] | 0.41 kcal/mol | 1.65 kcal/mol/M | 2.53 M | – | – | –
12 | MMYSKLLTLTTLLLPTALALPSLVERACDYTCGSNCYSSSDVSTAQQAGYQLHEDGETVGSNSYPHKYNNYEGFDFSVSSPYYEWPILSSGDVYSGGSPGADRVVFNENNQLAGVITHTGASGNNFVECT [A47Q] | – | – | – | 0.4 kcal/mol | 1.12 kcal/mol/M | 3.99 M
13 | MMYSKLLTLTTLLLPTALALPSLVERACDYTCGSNCYSSSDVSTAQFAGYQLHEDGETVGSNSYPHKYNNYEGFDFSVSSPYYEWPILSSGDVYSGGSPGADRVVFNENNQLAGVITHTGASGNNFVECT [A47F] | 0.57 kcal/mol | 1.69 kcal/mol/M | 2.43 M | – | – | –
14 | MMYSKLLTLTTLLLPTALALPSLVERACDYTCGSNCYSSSDVSTAQCAGYQLHEDGETVGSNSYPHKYNNYEGFDFSVSSPYYEWPILSSGDVYSGGSPGADRVVFNENNQLAGVITHTGASGNNFVECT [A47C] | 0.74 kcal/mol | 1.56 kcal/mol/M | 2.33 M | – | – | –
15 | MMYSKLLTLTTLLLPTALALPSLVERACDYTCGSNCYSSSDVSTAQSAGYQLHEDGETVGSNSYPHKYNNYEGFDFSVSSPYYEWPILSSGDVYSGGSPGADRVVFNENNQLAGVITHTGASGNNFVECT [A47S] | 0.49 kcal/mol | 1.67 kcal/mol/M | 2.48 M | 0.4 kcal/mol | 1.22 kcal/mol/M | 3.99 M
16 | MMYSKLLTLTTLLLPTALALPSLVERACDYTCGSNCYSSSDVSTAQGAGYQLHEDGETVGSNSYPHKYNNYEGFDFSVSSPYYEWPILSSGDVYSGGSPGADRVVFNENNQLAGVITHTGASGNNFVECT [A47G] | 0.9 kcal/mol | 1.71 kcal/mol/M | 2.23 M | – | – | –
17 | MMYSKLLTLTTLLLPTALALPSLVERACDYTCGSNCYSSSDVSTAQHAGYQLHEDGETVGSNSYPHKYNNYEGFDFSVSSPYYEWPILSSGDVYSGGSPGADRVVFNENNQLAGVITHTGASGNNFVECT [A47H] | 0.56 kcal/mol | 1.79 kcal/mol/M | 2.44 M | 0.17 kcal/mol | 1.27 kcal/mol/M | 4.18 M
18 | MMYSKLLTLTTLLLPTALALPSLVERACDYTCGSNCYSSSDVSTAQNAGYQLHEDGETVGSNSYPHKYNNYEGFDFSVSSPYYEWPILSSGDVYSGGSPGADRVVFNENNQLAGVITHTGASGNNFVECT [A47N] | -0.34 kcal/mol | 1.72 kcal/mol/M | 2.99 M | – | – | –
